Measurements as given in the supplement of paper PMC11811203.

B1: THAP1; numbered along this chain (parent)
chain: MVQSCSAYGCKNRYDKDKPVSFHKFPLTRPSLCKEWEAAVRRKNFKPTKYSSICSEHFTPDCFKRECNNKLLKENAVPTIFLCTEPHDKKEDLLEPQEQLPPPPLPPPVSQVDAAIGLLMPPLQTPVNLSVFCDHNYTVEDTMHQRKRIHQLEQQVEKLRKKLKTAQQRCRRQERQLEKLKEVVHFQKEKDDVSERGYVILPNDYFEIVEVPA

Variants of: B1
Experiment: THAP1 transcriptional activity (GFP+/GFP- enrichment relative to wild-type constructs) (ratio to WT); higher = more THAP1 activity (PSMB5 reporter activation)
Settings: with PSMB5 promoter-GFP reporter
Outline: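 In duplicate, a lentivirus-delivered library with every residue from 2–213 of human THAP1 changed to all 20 amino acids was introduced at MOI ~0.3 into THAP1-knockout HEK-293T cells carrying endogenous PSMB5 tagged by mClover3 knock-in. Five days on, BFP+ cells were binned as GFP-dim or GFP-bright, and Illumina sequencing of genomic DNA amplicons counted each variant. Activity is the bright/dim read fold change, averaged over replicates and scaled to the mean of wild-type synonymous constructs.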

THAP1 transcriptional activity, by site and new letter:
Y137: M 0.114 | A 0.0848 | W 0.0825 | R 0.214 | V 0.0934 | D 0.172 | K 0.211 | C 0.147 | L 0.167 | P 0.117 | E 0.152 | G 0.161 | S 0.137 | I 0.109 | Q 0.186 | N 0.195 | F 0.161 | T 0.136 | H 0.111
T142: L 0.587 | I 0.34 | A 0.581 | K 0.964 | P 0.997 | H 0.658 | D 0.738 | S 0.66 | C 0.803 | N 0.392 | R 0.576 | Q 0.756 | V 0.403 | M 0.188 | G 0.864 | E 1.23 | Y 0.248 | F 0.386 | W 0.266
S130: F 0.246 | R 0.271 | T 0.436 | W 0.276 | Q 0.656 | Y 0.1 | M 0.164 | L 0.324 | P 0.611 | A 0.566 | V 0.196 | C 0.265 | D 0.555 | H 0.517 | E 0.224 | N 0.651 | I 0.104 | G 0.946 | K 0.625
H144: T 0.4 | G 1.11 | A 1.5 | Y 0.802 | S 0.747 | W 0.56 | Q 0.814 | C 0.498 | K 0.954 | F 0.637 | E 0.421 | R 0.709 | M 0.509 | N 0.686 | V 0.388 | D 0.747 | P 0.334
E140: N 1.33 | G 2.94 | A 1.46 | C 0.908 | L 1.81 | V 1.01 | D 0.727 | I 1.08 | M 1.04 | R 1.3 | Q 1.61 | W 1.1 | T 1.57 | F 1.16 | H 0.784 | S 1.48 | Y 1.16 | K 4.18 | P 3.02
V131: G 0.244 | L 0.533 | D 0.241 | W 0.261 | Y 0.27 | K 0.299 | T 0.276 | E 0.239 | M 0.291 | C 0.427 | Q 0.386 | S 0.28 | H 0.401 | P 0.75 | I 0.81 | R 0.367 | N 0.494 | A 0.451 | F 0.399
D141: F 0.552 | S 0.634 | Y 0.644 | T 0.642 | W 0.255 | I 0.309 | H 0.514 | C 0.355 | A 0.37 | L 0.286 | E 1.51 | R 0.588 | K 0.927 | N 0.776 | Q 0.581 | P 0.986 | G 0.809 | V 0.352 | M 0.395
N128: Y 0.306 | R 0.823 | I 0.201 | W 0.283 | T 0.494 | H 0.446 | Q 0.507 | L 0.284 | V 0.346 | K 0.645 | G 0.685 | M 0.264 | S 0.395 | P 0.417
Q145: S 0.592 | W 0.755 | C 0.357 | F 0.716 | Y 0.618 | R 0.646 | D 0.415 | T 1.05 | N 0.719 | A 1.08 | L 0.544 | G 0.569 | K 0.783 | E 0.577 | P 0.652 | M 0.767 | V 0.59 | H 0.747 | I 0.448
L129: Q 0.659 | Y 0.843 | K 1.95 | I 1.12 | H 1 | D 0.405 | P 0.79 | W 1.7 | A 0.855 | R 1.86 | F 1.16 | V 0.92 | E 0.516 | S 1.2 | M 0.714 | C 0.646 | T 1.05 | N 1.4 | G 0.706
D134: C 0.156 | Q 0.0618 | N 0.121 | I 0.153 | M 0.159 | E 0.389 | V 0.123 | G 0.148 | W 0.177 | Y 0.166 | S 0.277 | F 0.144 | A 0.125 | R 0.265 | K 0.141 | T 0.354 | P 0.296 | H 0.203
C133: R 1.24 | D 0.73 | V 2.05 | Q 1.27 | F 0.613 | A 0.667 | T 0.872 | P 0.267 | W 2.31 | N 1.15 | S 1.44 | G 0.883 | M 0.928 | K 1.7 | H 2.5 | E 0.936 | L 1.89 | Y 0.913 | I 1.29
N136: L 0.102 | Q 0.102 | T 0.311 | C 0.164 | Y 0.187 | S 0.345 | V 0.0965 | W 0.0779 | I 0.149 | M 0.134 | D 0.153 | F 0.279 | A 0.208 | G 0.109 | K 0.142 | R 0.364 | H 0.131 | E 0.14 | P 0.263
T138: N 0.196 | P 0.286 | Y 0.424 | G 0.526 | V 0.728 | A 2.41 | K 0.191 | F 0.626 | I 0.274 | M 0.238 | Q 0.224 | E 0.215 | R 0.375 | C 2.63 | W 0.363 | H 0.837 | L 0.13 | D 0.306 | S 1.07
H135: F 0.196 | I 0.146 | L 0.0852 | A 0.145 | G 0.152 | Y 0.217 | V 0.227 | M 0.0946 | T 0.111 | S 0.182 | E 0.396 | N 0.183 | D 0.195 | C 0.22 | P 0.31 | W 0.177 | R 0.0891 | Q 0.151
F132: L 1.12 | I 0.806 | E 0.425 | W 0.329 | S 0.452 | V 0.402 | M 1.06 | C 0.597 | Y 0.392 | P 0.285 | D 0.363 | K 1 | R 0.942 | N 0.635 | Q 0.462 | G 0.49 | A 0.892 | T 0.436 | H 1.03
M143: G 1.05 | Q 0.669 | L 0.725 | E 0.983 | F 0.339 | D 1.76 | T 1.19 | W 0.719 | Y 0.547 | P 1.2 | H 0.575 | R 0.991 | K 0.848 | C 1.09 | A 0.634 | S 0.971 | I 0.679 | N 0.961 | V 1.09
V139: G 0.378 | L 1.18 | D 0.0939 | R 0.938 | F 0.996 | A 0.763 | Q 0.576 | Y 0.59 | M 1.22 | I 0.897 | P 0.163 | S 0.407 | T 0.34 | K 1.41 | E 0.369 | C 0.724 | H 0.721 | W 0.454
R146: A 0.79 | D 0.548
